In general, EC50 refers to the concentration that produces a half-maximal response. The Kd is the equilibrium constant for the complex coming apart. One may read the koff as a measure of how fast the partners let go of each other. Usually kon stands for the rate constant with which the complex forms.

The source of these data is patent US20240360216A1 (NOVOPROTEIN SCIENTIFIC, published 2024).

The target in assay [1] is T1, monkey CD3E protein (Examples 4.2 and 7) (monkey, UniProt Q95LI5 22-117).
T1 construct: extracellular domain
T1 sequence (looked up): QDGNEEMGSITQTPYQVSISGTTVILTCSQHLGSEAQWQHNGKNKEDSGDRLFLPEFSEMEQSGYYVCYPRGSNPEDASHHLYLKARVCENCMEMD
Description: ELISA.

Assay [2] deals with T1, monkey CD3E protein (Examples 4.2 and 7). Description: ELISA on monkey CD3E.
The target of assay [3] is T2, human CD3 on Jurkat cells (human CD3+ cell line) (human, UniProt P07766 23-207).
T2 construct: whole, on cells; Also used for the T cells of human PBMC in the CD69 assays; also called human CD3 positive cells; CD3 on T cells of PBMC
Description: flow cytometry on Jurkat cells, anti hFC-APC detection.

In assay [4] the target is T3, human CD3E protein (Example 4.1) (human, UniProt P07766 23-126).
T3 construct: extracellular domain
Description: Fortebio (BLI), antibody on protein A sensor, CD3E diluted from 100 nM. On the technique in general: Biolayer interferometry detects binding as a change in optical thickness at a sensor tip.

T3 sequence (P07766 23-126): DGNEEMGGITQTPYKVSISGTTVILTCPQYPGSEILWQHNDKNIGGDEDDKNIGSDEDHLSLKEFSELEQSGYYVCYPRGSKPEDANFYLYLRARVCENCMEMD
T2 sequence (P07766 23-207): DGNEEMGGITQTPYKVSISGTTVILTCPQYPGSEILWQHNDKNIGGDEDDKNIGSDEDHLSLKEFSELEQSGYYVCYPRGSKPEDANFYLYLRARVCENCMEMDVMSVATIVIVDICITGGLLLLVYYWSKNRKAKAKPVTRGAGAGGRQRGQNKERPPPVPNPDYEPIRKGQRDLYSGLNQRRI

B1: OKT3 antibody (control antibody) (antibody, V domains shown)
VH: not shown
VL: QIVLTQSPAIMSASPGEKVTMTCSASSSVSYMNWYQQKSGTSPKRWIYDTSKLASGVPAHFRGSGSGTSYSLTISGMEAEDAATYYCQQWSSNPFTFGSGTKLEINR
Regarding B1, the binding result in assay [1] was “no binding”.

B2: CD3 full-length antibody CQ54 (antibody, V domains shown)
VH: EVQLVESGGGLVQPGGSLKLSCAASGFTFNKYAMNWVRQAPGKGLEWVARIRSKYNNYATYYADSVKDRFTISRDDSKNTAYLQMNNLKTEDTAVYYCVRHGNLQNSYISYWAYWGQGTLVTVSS
VL: QTVVTQEPSLTVSPGGTVTLTCGSSTGPVTGGNYPNWVQQKPGQAPRGLIGGTKFLAPGTPARFSGSLLGGKAALTLSGVQPEDEAEYYCVLWESNRWVFGGGTKLTVLT
notes: Includes huVH5 and huVL5
Take B2: the midpoint of the response in assay [2], the EC50, lay at 0.375 µg/mL. For the same molecule, the EC50 in assay [3] came out at 0.023 µg/mL. In assay [4], this molecule gave a Kd of 0.97 nM, a koff of 0.000604 s⁻¹ and a kon of 621000 M⁻¹ s⁻¹.
